According to PMC5397172:

Tests used:
Test in all cases: EMSA
[1] = target: Flag-p65 (homodimer) (UniProt Q04206 1-551)
[2] = target: Flag-p50 (homodimer) (UniProt P19838 1-433)
[3] = target: HA-p65;Flag-p50 (human?;human?, UniProt Q04206;P19838 1-551;1-433, |)

Measured: binding result

Flag-p50 (homodimer), sequence (P19838 1-433): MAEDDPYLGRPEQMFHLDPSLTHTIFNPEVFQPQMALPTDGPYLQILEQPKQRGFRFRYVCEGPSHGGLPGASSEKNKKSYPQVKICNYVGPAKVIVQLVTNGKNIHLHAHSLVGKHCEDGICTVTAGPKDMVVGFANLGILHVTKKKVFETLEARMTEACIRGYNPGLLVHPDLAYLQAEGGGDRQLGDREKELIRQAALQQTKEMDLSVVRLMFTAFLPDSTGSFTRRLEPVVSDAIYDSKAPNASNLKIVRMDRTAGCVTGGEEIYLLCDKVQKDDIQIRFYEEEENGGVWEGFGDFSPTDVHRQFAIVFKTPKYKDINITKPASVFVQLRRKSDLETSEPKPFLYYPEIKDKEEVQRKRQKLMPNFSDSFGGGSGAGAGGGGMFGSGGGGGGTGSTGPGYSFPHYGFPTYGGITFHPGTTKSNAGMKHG
Flag-p65 (homodimer), sequence (Q04206 whole entry): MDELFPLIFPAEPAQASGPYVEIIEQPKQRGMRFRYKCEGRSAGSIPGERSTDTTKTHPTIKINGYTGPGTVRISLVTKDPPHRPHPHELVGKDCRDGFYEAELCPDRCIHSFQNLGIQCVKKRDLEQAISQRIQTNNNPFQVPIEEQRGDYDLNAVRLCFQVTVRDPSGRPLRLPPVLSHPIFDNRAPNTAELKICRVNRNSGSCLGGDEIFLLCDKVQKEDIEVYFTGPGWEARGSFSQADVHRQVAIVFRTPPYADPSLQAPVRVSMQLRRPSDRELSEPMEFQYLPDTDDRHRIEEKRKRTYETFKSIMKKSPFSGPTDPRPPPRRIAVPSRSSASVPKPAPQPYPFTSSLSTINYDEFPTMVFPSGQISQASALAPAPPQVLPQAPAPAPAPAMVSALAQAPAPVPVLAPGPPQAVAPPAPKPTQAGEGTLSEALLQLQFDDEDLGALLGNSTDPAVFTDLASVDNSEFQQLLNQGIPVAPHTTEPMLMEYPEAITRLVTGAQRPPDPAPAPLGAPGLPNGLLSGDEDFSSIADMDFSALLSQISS
HA-p65;Flag-p50, sequence (Q04206 whole entry, chain 1 of 2): as the sequence (Q04206 whole entry) above
HA-p65;Flag-p50, sequence (P19838 1-433, chain 2 of 2): as the sequence (P19838 1-433) above

B1: Ig kappaB mutant (dsDNA)
DNA 1: AGTTGAATCCACTTTCCCAGG
DNA 2: CCTGGGAAAGTGGATTCAACT
no binding: [1] | [2] | [3]
